In the DeepSol protein solubility set:

assay: soluble on expression in E. coli; label from the status in PepcDB or PDB records

Row | Sequence | soluble on expression in E. coli
1 | MGSDKIHHHHHHAVFVAVGIRMITSGDGRTNRYDVEAGNNTYDNAVIENSKISEKNKIQNNQSMLDDIMNSTQYPKQLKDLALKNEEALEFVFDYPAEHVKEHTIDLTEEASMDSVPLFVQWDKRWGYEKYSGNFFAASGCGPTTLSMVVVYLTHNREASPIAVAKYSKEAGYSVDGSGSSWTLISEGCMHYGVKAKAVALDESRMKAELDEGHPIVVNVGPGDFTDTGHFMVITGYDDEGFSINDPNSIEKSGKRWLFKNISSQIRAVWSMYV | not soluble
2 | MGSDKIHHHHHHAVQNTITIRSRGAKVYNKNGNAIVDARDKNIVLKEGTVAEYYGEPKYMVWRGHKKASFYNIGGNRYLLGYNVASLNDKGTLSIYRDSYIYDKTGKRVEKNTVLRKGTAINYVDKLNEKIETEKNLPKFYYYNMAIQRTHEGMLWVKYSVLSVKYHIINGKEYYKIANNKYIRATNIGYINGRQLFTTEATVTMGKATTKDGKYYARNMNGKITKTILPYKPGQKVVVDRSFQHSSKSFWRIKGTNYYIFGPDIKKFPIQALRR | not soluble
3 | MGSDKIHHHHHHCDDNDGYSLGDIAVDWATVRVVGGDTYSLNADRWGTLWPAATAIPFYKPIDGQRVITYFNPLYDNYEGYDHAVKVEHNYNVLTKQVEDLTAENESEFGNDPVWVNKDMMWIGGGYLNVIFRQNLPVKEKHLVSLVRDMRATAAEGEDDGYIHLELRYKTYDDVTARQANGAVSFNLNSLDLTGKKGIKVKLNSVKDGETEVVFNLKGQSMPEEAKQVTLSDEVQIK | not soluble
4 | MGSDKIHHHHHHDDPFYAPVYPEAPPTKIAATGSIYQDSQAASLYSDIRAHKVGDIITIVLKEATQAKKSAGNQIKKGSDMTLDPVYAGGSNLSLGGIPLDLRYKDSMNTKRESDADQSNSLDGSISANIMQVLNNGNLVVRGEKWISINNGDEFIRVTGIVRSQDIKPDNTIDSTRMANARIQYSGTGTFAEAQKVGWLSQFFMSDWWPF | not soluble
5 | MGSDKIHHHHHHDKDFGGLENIGWNEKPLQITTRILTTKSTNFIQEFKEGSMLGLQITSGTVDDLYNGISTYKNVSVKAYRVNGKIRWQQSPEVILDSNEATIYAYYPYQEDINFNARQIPVKLAPNALETDDYMYGTHAIGQKAVNSTSPLVLLSMNHALSLISFQLNLSKGKTGAFIISSVQVGNKPGGTTLVSEGTLDITTGDIIGSTARSTSASTVLSLTNPVTLINEKYCDPMRLMVIPPSGTIGTGDVETLFTINGETYKFDIPANTQWEKGKKYLYKLSFNGRSLQLRDVSITDWLPGNDEGLIGNIM | not soluble
6 | MGSDKIHHHHHHDKTVKENGRTLHNGIVLPEQWPPSMIDDGVRREMSLPYISNKPTVISVNLGRQLFVDDFLIAETDMERVSHKAMFYENNPVLAPDKEWEYTFERAPYAAPFSDGIWYDESEQKFKMWYLAGAGSMHKHRQSFYTCYAESKDGKHWEKVNMDIVPGTNIVDTCDRDAATVWLDKMCPEPEKRFKLFNVEKHSGGWKIILKYSKDGIHWSEGVAQSGPVGDRTTAFYNPFTQKWAISLRQGSKADGRSRGYLENEDPEMAVSVAHSLAKGIKDKNIVLWFTPSDKELPHPEFPDVRPAIYNFDAMPYESVMLGFYAMWKGPENDLCGKLGIQKRNEIGMGYSRDGFHFYRPSYEPVMGVNETEGAWNWGNMQSVIGVPLIVGDSLYLYSSGRMKNKVMWDGFTSTGLATLRRDGFVSMHTDTEGVLVTEKIKFDGNHFFVNAQAKDLQVEIMDENGNVITGFSREDCKEMNDLNSTKQLVTWKSGKKLAALSGKIVKVKFYVTCGDLYAFWISPWDTGESRGYTGGGGPGLNPCGIDIK | not soluble
7 | MGSDKIHHHHHHENLYFQGMRFLAYFGHLNIDVLISVDSIPREGSVNVKDLRPRFGGTAGNFAIVAQKFRIPFDLYSAVGMKTHREYLAMIESMGINTGHVEKFEDESGPICYIATDGKKQVSFMHQGAMAAWAPQLADEYEYVHFSTGPNYLDMAKSIRSKIIFDPSQEIHKYSKDELKKFHEISYMSIFNDHEYRVFREMTGLSSPKVTTIVTNGERGSSLFMDGKKYDFPAIPSSGDTVGAGDSFRAGLYLALYNRRSIEKGMIYGTIIAHHVIDDGIENFSLNMEDLERETENYRRMFTKRS | soluble
8 | MGSDKIHHHHHHESSKSGYQTTGENNSSDYQGIIEDGEYKTSKSRGVGISQNSDNLLNLKSFEAGLTTISKDHFSTKSYIFQEGQYLNKATIQDWLGRKSSSNPEGLNPSDNGKKEANKRNPIYVQQIEEQDYMKQNNGKLELAGMTIGIGMNQKDYYQKEQYGATYSTTISKEKRIEEGKIAAKKVLARVRQKVGNNVPIVIAMFAQAPNDSLVGGYFYSYTVSKSGTDIGSWTETNIKSYVLPATEDNKLPNDNDSTSFDNFQKEVKNFFPNISNVTGQGQYKDKTLQGLHITITTQFYSETEITSFTQYVAQAAKSYLPSGIPVDIKINGSDGETQSFVSTTGGNGGYYTHVFGSY | not soluble
9 | MGSDKIHHHHHHFEEVNTDPDSPTDVPTTNLLAYSLYYTSYRLYDRWFAMDEPMTFCGYASKMTYIDESRYNFRTGVQDTNWEYLYRILNNLKDIEKRATFNETPNMLNVSKVMQVHLMQVATDRWRDVPYTDAAKMTDGILQPKYDKQEDIYPGLLATLKEAADGFADGGSDDLGEGDLLFGGDIEKWQRYCNSMRLRLAMRISEVSPALAKETVEEVMGNPTKYPIMESNDDNAFFWWIGTDPNYYEPMADGYRTRKTEYCAADVIVDHMNTREDPRRSSYFQPTKESVEAGEPKYVGYTIGAKANAVASKYSIWGARFFTDLAGFSPYMRVAEPWFCVAEASMLGWNTGISAEDAYNKAVTYSMEENSVSAEDIADYLANAGKFTNDKKQIYYEEWVAMFKQGMEGWSLYRRTGVPDNLYPAPGRPANYSNHNVPPFRSPYPDKERNLNNANCAPFDAEVVDNLWGKQMWWDTRTGVH | not soluble
10 | MGSDKIHHHHHHGFESDNANKAGYTPELQEYDLQKYVLNLGVMQQGIYFNYDWGRGTDWTFQTIQNLGHDMFAGYFHDMNNSFNDKNSVYALNDGWTGSAWTYTYGYIMTAAQKSEKINQEQKGLLGVTKILKVELMHRIADTYGPIVYTKFGQEEGDNVDSQEAAYRQFFKDLDEGVKLINEYKKDNAALEPFAAADILMPAGKRTLSQWVKFANSLRLRLAIRVSMSAPDLARAEVAKAMDATAGGVLESADETVAVSTESGYKNPLGTVNEGWGEVFMGATMESVLVGYNDPRLIKYYSKAEGGDIKDEKGNLIIAERNKIAGTYKGVPQGTGVTVKDENRYRLHSKSTITKQTDAILMTAAEVWFLRAEAALRGFTSENVKDCYEKGITVSCQQWGVNVGDYLTSDATPSDYVDAFEAKYDVKALIKVTPKWDGGASPEEQLERILTQKWIACYPEGYEAWTEQRRTGYPQLFKVFVNNSGGAIDTNIRIRRLPYPSDIQKNNPTQYSALKKALGGEDNGGTRLWWDTGRNF | not soluble
11 | MGSDKIHHHHHHGGLGDKSFNDGTWAGIKQAAEELGIEAKVIQSYEQSDYIPNLSKAAEEADLVFAVGFMMTNDLFKVAKQYPDTYFVGIDITPPEGQILPNVLTFTFKEQEAAFLVGYVAAAMTKTGMVGFVGGIPIPPVERFRYGYEAGIKTYSVLHKKNVKILRGYTQDFEDPKKGKDLAMSQFAEGADIVFHASGACGNGVIEAAREKFSALAGSDKLVDLIDYYTTNGKGFFAIGVDMDQDYMAPGAVLTSAMKRVDVASYYGVVWAYEGTFEGGHRVLGISEDAVGISPMKYTKGLVPNRVIAELLYLEKLMKEGTLKVPETQEELDAFEVPQIEFPF | not soluble
12 | MGSDKIHHHHHHGTSGTSKSSKTQLTGQSSDGDYEGVIKSGHYQTSKSRGVTNSQDSGNTYNVKSFENGMLGVSKKVFSTKSYVFQEGQYLSSSTVQNWLDRKTKSNPTGLNPKSNGSTSPTKRNPVYIQALEEQDYMTQKNNKLSLGGVTIGIAVNSVDYYKKTQYGATYETKITKAEGEAYAKKAANTVLKRLRKKSALKNVPIVIAIYRQASNDSLVGGNFIAYSENKGSATTVSKWNALSEKNYVFPIESGSSSPNSNDETSFTNFKSQVENFFPNLSGVTAQAHYSGNTLTGMHVNITTQFYSQTEIISFTQYLQTAAQKYLPSSVPIDITVSSTDSVQSFLSRSSGAKKFTSHVFNSY | not soluble
13 | MGSDKIHHHHHHLAADQDTETQEMLLVMSDLDAQGFDQRRINLTQAELYACIEWLARFHAMFAYEAFPKEDALDDASYDGLWPIGTYWHLATRPDELEVMTDSPLKNATEAIDARLNQARFQTLVHGDAKVANFCFHKEVESLGVNGVAAVDFQYVGAGIGVKDFIYLLGSCLDEAQLVTIYDAACSHYFKSLKQQLSGRWAAEQIEALVAEWSDLLPFAWADFERFLAGWQPQHHKRNGFSQDMTQRVLKALGSVR | not soluble
